We go through 9 molecules from patent US20240182553A1 (NANJING GENSCRIPT BIOTECH, published 2024).

This experiment deals with T1, Ang2 protein (R&D system) (UniProt O15123 19-496).
T1 sequence (looked up): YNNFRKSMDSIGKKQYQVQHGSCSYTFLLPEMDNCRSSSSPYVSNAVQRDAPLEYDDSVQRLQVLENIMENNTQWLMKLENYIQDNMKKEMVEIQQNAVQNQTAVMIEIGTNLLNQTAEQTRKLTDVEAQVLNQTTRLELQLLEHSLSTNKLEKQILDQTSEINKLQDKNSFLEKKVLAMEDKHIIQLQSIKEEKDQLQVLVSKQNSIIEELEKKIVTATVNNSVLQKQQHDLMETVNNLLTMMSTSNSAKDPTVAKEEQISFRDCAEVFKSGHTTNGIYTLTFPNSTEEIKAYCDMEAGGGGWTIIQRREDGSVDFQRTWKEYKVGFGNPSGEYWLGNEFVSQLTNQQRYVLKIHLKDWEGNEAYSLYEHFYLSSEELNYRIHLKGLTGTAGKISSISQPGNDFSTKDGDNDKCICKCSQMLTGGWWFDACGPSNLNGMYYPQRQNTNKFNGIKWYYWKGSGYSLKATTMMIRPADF
The experiment is described as follows: cell-based or functional assay.

B1: hABTAA-VHvegfr-VL (bispecific antibody, human IgG4 S228P, kappa)
heavy: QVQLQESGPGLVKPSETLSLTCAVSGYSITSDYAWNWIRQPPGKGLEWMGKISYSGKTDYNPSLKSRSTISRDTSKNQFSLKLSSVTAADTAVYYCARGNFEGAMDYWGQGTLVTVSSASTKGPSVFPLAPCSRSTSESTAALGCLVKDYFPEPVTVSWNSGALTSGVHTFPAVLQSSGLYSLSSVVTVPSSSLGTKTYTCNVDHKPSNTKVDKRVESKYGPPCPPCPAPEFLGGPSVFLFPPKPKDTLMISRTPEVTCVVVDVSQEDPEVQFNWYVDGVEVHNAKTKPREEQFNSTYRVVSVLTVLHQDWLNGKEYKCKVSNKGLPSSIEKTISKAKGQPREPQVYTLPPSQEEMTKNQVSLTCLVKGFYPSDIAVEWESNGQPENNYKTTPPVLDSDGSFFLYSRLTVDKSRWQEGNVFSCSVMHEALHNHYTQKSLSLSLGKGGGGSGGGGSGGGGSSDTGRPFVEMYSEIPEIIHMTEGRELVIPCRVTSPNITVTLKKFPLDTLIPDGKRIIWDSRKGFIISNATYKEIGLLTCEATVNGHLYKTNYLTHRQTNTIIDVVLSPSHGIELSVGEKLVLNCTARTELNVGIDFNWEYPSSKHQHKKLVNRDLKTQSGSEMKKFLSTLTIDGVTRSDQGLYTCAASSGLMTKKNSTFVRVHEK
light: DIQMTQSPSSLSASVGDRVTITCKASQSVSNDVAWYQQKPGKAPKLLIYYASNRYPGVPSRFSGSGSGTDFTLTISSLQPEDFATYYCQQDYSSPWTFGQGTKLEIKRTVAAPSVFIFPPSDEQLKSGTASVVCLLNNFYPREAKVQWKVDNALQSGNSQESVTEQDSKDSTYSLSSTLTLSKADYEKHKVYACEVTHQGLSSPVTKSFNRGEC
Take B1: the “EC50 (phospho-Akt Ser473 HTRF dose-response, HUVEC + Ang2)” value (“EC50” for short) is 883 nM and the “Span (phospho-Akt Ser473 HTRF dose-response, HUVEC + Ang2)” value (shortened to “Span”) is 14300 HTRF ratio (665nm/620nm).

B2: 31E2D4-VH4-vegfr-VL1 (bispecific antibody, human IgG4 S228P, kappa)
heavy: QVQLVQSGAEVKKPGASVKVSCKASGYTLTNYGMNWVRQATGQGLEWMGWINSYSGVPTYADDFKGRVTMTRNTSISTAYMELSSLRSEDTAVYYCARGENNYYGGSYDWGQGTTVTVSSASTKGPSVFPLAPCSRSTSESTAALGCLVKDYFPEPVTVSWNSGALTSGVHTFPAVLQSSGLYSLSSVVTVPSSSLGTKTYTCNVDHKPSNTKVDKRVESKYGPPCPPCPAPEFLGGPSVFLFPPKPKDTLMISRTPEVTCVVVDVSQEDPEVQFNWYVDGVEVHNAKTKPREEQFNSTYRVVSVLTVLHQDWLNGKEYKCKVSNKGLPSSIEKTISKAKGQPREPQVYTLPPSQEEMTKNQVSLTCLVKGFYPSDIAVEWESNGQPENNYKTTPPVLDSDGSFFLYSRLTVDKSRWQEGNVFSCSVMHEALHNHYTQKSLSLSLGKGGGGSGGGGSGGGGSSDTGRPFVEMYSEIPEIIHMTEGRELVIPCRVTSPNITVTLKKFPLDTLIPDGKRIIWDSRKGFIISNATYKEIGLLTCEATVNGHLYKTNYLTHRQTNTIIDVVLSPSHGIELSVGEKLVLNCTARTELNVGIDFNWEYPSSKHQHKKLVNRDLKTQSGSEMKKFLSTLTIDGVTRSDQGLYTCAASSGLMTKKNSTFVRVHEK
light: DIQMTQSPSSLSASVGDRVTITCKASQSVSNDVAWYQQKPGKAPKLLIYYASNRYTGVPSRFSGSGSGTDFTLTISSLQPEDFATYYCQQDYSSPLTFGGGTKLEIKRTVAAPSVFIFPPSDEQLKSGTASVVCLLNNFYPREAKVQWKVDNALQSGNSQESVTEQDSKDSTYSLSSTLTLSKADYEKHKVYACEVTHQGLSSPVTKSFNRGEC
B2: the “EC50” value was 2.39 nM and the “Span” value was 7380 HTRF ratio (665nm/620nm).

B3: 5F7D7-VH3-vegfr-VL5 (bispecific antibody, human IgG4 S228P, kappa)
heavy: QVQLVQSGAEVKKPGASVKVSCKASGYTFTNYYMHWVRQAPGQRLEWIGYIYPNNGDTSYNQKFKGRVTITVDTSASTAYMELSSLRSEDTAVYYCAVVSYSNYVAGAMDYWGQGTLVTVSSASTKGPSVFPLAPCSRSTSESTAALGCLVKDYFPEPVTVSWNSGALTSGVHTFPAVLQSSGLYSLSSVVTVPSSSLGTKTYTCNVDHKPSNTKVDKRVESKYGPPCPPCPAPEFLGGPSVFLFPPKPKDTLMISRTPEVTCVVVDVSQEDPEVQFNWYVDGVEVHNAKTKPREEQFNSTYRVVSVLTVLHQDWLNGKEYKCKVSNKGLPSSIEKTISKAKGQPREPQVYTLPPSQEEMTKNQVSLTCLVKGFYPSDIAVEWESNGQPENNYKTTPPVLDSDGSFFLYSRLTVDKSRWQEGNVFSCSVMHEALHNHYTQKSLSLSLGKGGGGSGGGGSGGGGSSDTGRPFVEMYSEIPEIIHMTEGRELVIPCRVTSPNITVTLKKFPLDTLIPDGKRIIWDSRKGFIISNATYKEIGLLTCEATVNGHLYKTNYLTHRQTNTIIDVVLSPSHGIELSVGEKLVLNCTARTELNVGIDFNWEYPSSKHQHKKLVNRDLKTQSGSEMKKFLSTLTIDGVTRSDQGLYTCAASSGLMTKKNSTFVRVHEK
light: DIQMTQSPSSLSASVGDRVTITCKASQSVSNDVAWYQQKPGKAPKLLIYFASNRYTGVPSRFSGSGYGTDFTFTISSLQPEDIATYFCQQDYSSPYTFGGGTKLEIKRTVAAPSVFIFPPSDEQLKSGTASVVCLLNNFYPREAKVQWKVDNALQSGNSQESVTEQDSKDSTYSLSSTLTLSKADYEKHKVYACEVTHQGLSSPVTKSFNRGEC
Consider B3, for which the “EC50” value is ~2.12 nM and the “Span” value is 7020 HTRF ratio (665nm/620nm).

B4: hABTAA-VH-vegfrVL (bispecific antibody, human IgG4 S228P, kappa)
heavy chain: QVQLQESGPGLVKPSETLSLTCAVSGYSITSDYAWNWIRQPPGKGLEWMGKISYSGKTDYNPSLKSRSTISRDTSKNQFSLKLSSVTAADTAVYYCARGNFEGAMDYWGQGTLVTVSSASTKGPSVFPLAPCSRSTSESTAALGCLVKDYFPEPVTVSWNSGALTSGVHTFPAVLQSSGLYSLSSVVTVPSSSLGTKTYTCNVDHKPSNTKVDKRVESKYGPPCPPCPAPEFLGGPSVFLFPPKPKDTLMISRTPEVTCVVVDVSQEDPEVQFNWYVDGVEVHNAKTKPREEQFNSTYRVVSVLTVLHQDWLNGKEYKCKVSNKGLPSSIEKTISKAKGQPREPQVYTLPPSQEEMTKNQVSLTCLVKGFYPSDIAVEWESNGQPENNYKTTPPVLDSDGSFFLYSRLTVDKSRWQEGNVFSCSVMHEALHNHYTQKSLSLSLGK
light chain fusion polypeptide (VEGF-trap at N' of LC): SDTGRPFVEMYSEIPEIIHMTEGRELVIPCRVTSPNITVTLKKFPLDTLIPDGKRIIWDSRKGFIISNATYKEIGLLTCEATVNGHLYKTNYLTHRQTNTIIDVVLSPSHGIELSVGEKLVLNCTARTELNVGIDFNWEYPSSKHQHKKLVNRDLKTQSGSEMKKFLSTLTIDGVTRSDQGLYTCAASSGLMTKKNSTFVRVHEKGGGGSGGGGSGGGGSDIQMTQSPSSLSASVGDRVTITCKASQSVSNDVAWYQQKPGKAPKLLIYYASNRYPGVPSRFSGSGSGTDFTLTISSLQPEDFATYYCQQDYSSPWTFGQGTKLEIKRTVAAPSVFIFPPSDEQLKSGTASVVCLLNNFYPREAKVQWKVDNALQSGNSQESVTEQDSKDSTYSLSSTLTLSKADYEKHKVYACEVTHQGLSSPVTKSFNRGEC
Regarding B4, the “EC50” value worked out at 4.36 nM and the “Span” value is 6380 HTRF ratio (665nm/620nm).

B5: vegfr-5A7B9-VL1.1-VH3 (bispecific antibody, human IgG4 S228P, kappa)
heavy: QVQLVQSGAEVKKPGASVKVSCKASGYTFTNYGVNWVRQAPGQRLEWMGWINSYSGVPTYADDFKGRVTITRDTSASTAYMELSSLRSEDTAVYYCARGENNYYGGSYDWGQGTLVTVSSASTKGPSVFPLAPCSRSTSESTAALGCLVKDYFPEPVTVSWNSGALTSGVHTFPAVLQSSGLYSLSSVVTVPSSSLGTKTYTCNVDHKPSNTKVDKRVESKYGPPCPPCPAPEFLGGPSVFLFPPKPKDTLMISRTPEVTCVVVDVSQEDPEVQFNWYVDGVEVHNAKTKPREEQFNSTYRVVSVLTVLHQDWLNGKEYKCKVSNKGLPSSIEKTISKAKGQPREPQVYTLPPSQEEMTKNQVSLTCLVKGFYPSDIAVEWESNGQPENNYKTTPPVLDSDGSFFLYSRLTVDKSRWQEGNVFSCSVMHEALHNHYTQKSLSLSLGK
light: SDTGRPFVEMYSEIPEIIHMTEGRELVIPCRVTSPNITVTLKKFPLDTLIPDGKRIIWDSRKGFIISNATYKEIGLLTCEATVNGHLYKTNYLTHRQTNTIIDVVLSPSHGIELSVGEKLVLNCTARTELNVGIDFNWEYPSSKHQHKKLVNRDLKTQSGSEMKKFLSTLTIDGVTRSDQGLYTCAASSGLMTKKNSTFVRVHEKGGGGSGGGGSGGGGSDIQMTQSPSSLSASVGDRVTITCKASQSVSNDVAWYQQKPGKAPKLLIYYASNRYTGVPSRFSGSGSGTDFTLTISSLQPEDFATYFCQQDYSSPLTFGGGTKLEIKRTVAAPSVFIFPPSDEQLKSGTASVVCLLNNFYPREAKVQWKVDNALQSGNSQESVTEQDSKDSTYSLSSTLTLSKADYEKHKVYACEVTHQGLSSPVTKSFNRGEC
Regarding B5, the “EC50” value was determined as 4.72 nM and the “Span” value was 7740 HTRF ratio (665nm/620nm).

B6: 7F10B2-VH3-vegfr-VL3 (bispecific antibody, human IgG4 S228P, kappa)
heavy: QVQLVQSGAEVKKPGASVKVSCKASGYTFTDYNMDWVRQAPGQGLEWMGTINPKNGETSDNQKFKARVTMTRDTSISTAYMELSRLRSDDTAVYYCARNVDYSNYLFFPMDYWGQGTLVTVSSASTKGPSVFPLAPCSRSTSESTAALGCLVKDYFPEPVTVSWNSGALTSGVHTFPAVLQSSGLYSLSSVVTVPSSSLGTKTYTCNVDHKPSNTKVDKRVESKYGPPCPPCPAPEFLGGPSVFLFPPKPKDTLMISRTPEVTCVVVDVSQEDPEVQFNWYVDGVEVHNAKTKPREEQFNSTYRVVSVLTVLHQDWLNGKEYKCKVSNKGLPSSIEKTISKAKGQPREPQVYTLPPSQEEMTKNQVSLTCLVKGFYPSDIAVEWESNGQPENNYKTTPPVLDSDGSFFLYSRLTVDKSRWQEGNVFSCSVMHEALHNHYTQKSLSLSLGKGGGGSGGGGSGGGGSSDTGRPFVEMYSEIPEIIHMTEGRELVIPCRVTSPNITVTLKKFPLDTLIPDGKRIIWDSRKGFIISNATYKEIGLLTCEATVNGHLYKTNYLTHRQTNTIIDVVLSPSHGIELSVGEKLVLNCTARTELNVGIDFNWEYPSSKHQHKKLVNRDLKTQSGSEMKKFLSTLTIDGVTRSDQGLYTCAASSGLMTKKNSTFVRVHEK
light: DIQMTQSPSSLSASVGDRVTITCKASQSVSNDVAWYQQKPGKAPKLLIYYASNRFTGVPSRFSGSGSGTDFTLTISSLQPEDFATYYCQQDYSSRTFGGGTKVEIKRTVAAPSVFIFPPSDEQLKSGTASVVCLLNNFYPREAKVQWKVDNALQSGNSQESVTEQDSKDSTYSLSSTLTLSKADYEKHKVYACEVTHQGLSSPVTKSFNRGEC
B6: the “EC50” value turned out to be 2.59 nM and the “Span” value is 7330 HTRF ratio (665nm/620nm).

B7: 7F10B2-VL3-vegfr-VH3 (bispecific antibody, human IgG4 S228P, kappa)
heavy: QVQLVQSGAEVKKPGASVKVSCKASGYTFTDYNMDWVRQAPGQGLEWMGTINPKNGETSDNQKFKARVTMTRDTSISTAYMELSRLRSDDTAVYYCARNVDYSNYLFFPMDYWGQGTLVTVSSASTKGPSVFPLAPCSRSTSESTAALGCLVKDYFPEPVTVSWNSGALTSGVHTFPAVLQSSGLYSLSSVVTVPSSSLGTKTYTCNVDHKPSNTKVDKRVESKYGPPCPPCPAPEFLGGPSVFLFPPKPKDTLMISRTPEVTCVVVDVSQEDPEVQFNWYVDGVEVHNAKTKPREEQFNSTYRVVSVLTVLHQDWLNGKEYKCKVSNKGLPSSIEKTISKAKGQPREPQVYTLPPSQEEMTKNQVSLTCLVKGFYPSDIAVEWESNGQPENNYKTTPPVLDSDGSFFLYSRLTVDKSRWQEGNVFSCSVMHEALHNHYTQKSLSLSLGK
light: DIQMTQSPSSLSASVGDRVTITCKASQSVSNDVAWYQQKPGKAPKLLIYYASNRFTGVPSRFSGSGSGTDFTLTISSLQPEDFATYYCQQDYSSRTFGGGTKVEIKRTVAAPSVFIFPPSDEQLKSGTASVVCLLNNFYPREAKVQWKVDNALQSGNSQESVTEQDSKDSTYSLSSTLTLSKADYEKHKVYACEVTHQGLSSPVTKSFNRGECESKYGPPSPPSPSDTGRPFVEMYSEIPEIIHMTEGRELVIPCRVTSPNITVTLKKFPLDTLIPDGKRIIWDSRKGFIISNATYKEIGLLTCEATVNGHLYKTNYLTHRQTNTIIDVVLSPSHGIELSVGEKLVLNCTARTELNVGIDFNWEYPSSKHQHKKLVNRDLKTQSGSEMKKFLSTLTIDGVTRSDQGLYTCAASSGLMTKKNSTFVRVHEK
Consider B7, for which the “EC50” value was determined as 2.27 nM and the “Span” value was 7460 HTRF ratio (665nm/620nm).

B8: hABTAA anti-Ang2 antibody (antibody, human IgG4 S228P, kappa, V domains shown)
VH: QVQLQESGPGLVKPSETLSLTCAVSGYSITSDYAWNWIRQPPGKGLEWMGKISYSGKTDYNPSLKSRSTISRDTSKNQFSLKLSSVTAADTAVYYCARGNFEGAMDYWGQGTLVTVSS
VL: DIQMTQSPSSLSASVGDRVTITCKASQSVSNDVAWYQQKPGKAPKLLIYYASNRYPGVPSRFSGSGSGTDFTLTISSLQPEDFATYYCQQDYSSPWTFGQGTKLEIKR
For B8, the “EC50” value worked out at 2.53 nM and the “Span” value is 5590 HTRF ratio (665nm/620nm).

B9: hABTAA-VH-VLvegfr (bispecific antibody, human IgG4 S228P, kappa)
heavy chain: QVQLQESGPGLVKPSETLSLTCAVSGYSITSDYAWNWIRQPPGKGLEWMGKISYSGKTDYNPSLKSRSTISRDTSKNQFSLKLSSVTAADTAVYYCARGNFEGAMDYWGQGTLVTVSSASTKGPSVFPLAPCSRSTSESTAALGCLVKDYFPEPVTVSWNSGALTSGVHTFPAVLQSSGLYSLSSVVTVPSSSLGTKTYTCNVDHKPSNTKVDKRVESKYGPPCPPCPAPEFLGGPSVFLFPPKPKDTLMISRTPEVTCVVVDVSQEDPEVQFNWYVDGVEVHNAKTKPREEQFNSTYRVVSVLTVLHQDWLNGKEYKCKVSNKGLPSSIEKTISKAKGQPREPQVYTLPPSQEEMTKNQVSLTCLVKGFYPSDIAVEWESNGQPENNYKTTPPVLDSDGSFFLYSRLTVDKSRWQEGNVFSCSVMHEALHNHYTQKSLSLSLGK
light chain fusion polypeptide (VEGF-trap at C' of LC): DIQMTQSPSSLSASVGDRVTITCKASQSVSNDVAWYQQKPGKAPKLLIYYASNRYPGVPSRFSGSGSGTDFTLTISSLQPEDFATYYCQQDYSSPWTFGQGTKLEIKRTVAAPSVFIFPPSDEQLKSGTASVVCLLNNFYPREAKVQWKVDNALQSGNSQESVTEQDSKDSTYSLSSTLTLSKADYEKHKVYACEVTHQGLSSPVTKSFNRGECESKYGPPSPPSPSDTGRPFVEMYSEIPEIIHMTEGRELVIPCRVTSPNITVTLKKFPLDTLIPDGKRIIWDSRKGFIISNATYKEIGLLTCEATVNGHLYKTNYLTHRQTNTIIDVVLSPSHGIELSVGEKLVLNCTARTELNVGIDFNWEYPSSKHQHKKLVNRDLKTQSGSEMKKFLSTLTIDGVTRSDQGLYTCAASSGLMTKKNSTFVRVHEK
For the molecule B9, the “EC50” value is 3.25 nM and the “Span” value is 5440 HTRF ratio (665nm/620nm).
